Laboratory results from article PMC6222646, “HIV-1 Integrase-Targeted Short Peptides Derived from a Viral Protein R Sequence” (Molecules : A Journal of Synthetic Chemistry and Natural …, 2018).

molecular target: HIV-1 integrase (IN) (HIV-1); assay: cross-linking

Row | Substance | stoichiometry N
1 | peptide 15 (Biotin-linker-BIHFRIG) | 1

molecular target: HIV-1 integrase (IN) (HIV-1); assay: not given

Row | Substance | 3'-P IC50 (in vitro IN 3'-processing assay) [µM] | ST IC50 (in vitro IN strand transfer assay) [µM]
2 | peptide 1a (FIHFRIG) | 17.6 | 1.3
3 | peptide 2a (FIHFRIA) | > 111 | 34.7
4 | peptide 2b (FIHFRIA-amide) | > 111 | 60.6
5 | peptide 2c (Ac-FIHFRIA-amide) | 74.5 | 30.4
6 | peptide 3a (FIHFRAG) | 66.5 | 22.4
7 | peptide 3b (FIHFRAG-amide) | > 111 | > 111
8 | peptide 3c (Ac-FIHFRAG-amide) | 208 | 28
9 | peptide 4a (FIHFAIG) | > 111 | > 111
10 | peptide 4b (FIHFAIG-amide) | > 111 | > 111
11 | peptide 4c (Ac-FIHFAIG-amide) | > 333 | 81
12 | peptide 5a (FIHARIG) | > 111 | 46.6
13 | peptide 5b (FIHARIG-amide) | > 111 | > 111
14 | peptide 5c (Ac-FIHARIG-amide) | > 333 | 117
15 | peptide 6a (FIAFRIG) | 17.4 | 6.7
16 | peptide 6b (FIAFRIG-amide) | 95.4 | 35
17 | peptide 6c (Ac-FIAFRIG-amide) | 94 | 3.5
18 | peptide 7a (FAHFRIG) | > 111 | 73.5
19 | peptide 7b (FAHFRIG-amide) | > 111 | > 111
20 | peptide 7c (Ac-FAHFRIG-amide) | > 333 | 127
21 | peptide 8a (AIHFRIG) | 86.3 | 22.7
22 | peptide 8b (AIHFRIG-amide) | > 111 | > 111
23 | peptide 8c (Ac-AIHFRIG-amide) | > 333 | 46
24 | peptide 9a (FIHFRBG) | 20 | 4.3
25 | peptide 10a (FIHFBIG) | > 333 | 48
26 | peptide 11a (FIHBRIG) | 34 | 4.2
27 | peptide 12a (FIBFRIG) | 6.5 | 2.2
28 | peptide 13a (FBHFRIG) | 37 | 20
29 | peptide 14a (BIHFRIG) | 7.2 | 2.1
30 | peptide 15 (Biotin-linker-BIHFRIG) | 32 | 2.3

molecular target: HIV-1 integrase (IN) (HIV-1); assay: not given; remark: another data set of the same source

Row | Substance | 3'-P IC50 (in vitro IN 3'-processing assay; data not shown) [µM] | ST IC50 (in vitro IN strand transfer assay; data not shown) [µM]
31 | Vpr (69–75) peptide with the amino-terminal Phe (Vpr69) replaced with Glu (from UniProt P12520 69-75) | > 111 | > 111
